Kd data for 23 sequences are collected here from the Immune Epitope Database (IEDB).

Bounds are passed on as bounds.

Some targets named below: HLA-A*03:01; HLA-A*11:01; HLA-A*31:01; HLA-A*33:01; HLA-A*68:01.
Common to all, as to experiment: IEDB peptide-MHC binding, purified MHC/competitive/radioactivity; filed as Kd, often an IC50 or EC50 that approximates it; ≥ and ≤ were set here for values at or beyond the usual limits of such assays
[1] abbreviates: source organism: Vaccinia virus WR.
The mark [2] stands for this setting: source organism: SARS coronavirus Tor2.
Setting [3] is: source organism: Lassa virus GA391.

As a reminder, the Kd is the free concentration of one partner at which half of the binding sites on the other are occupied at equilibrium, for simple one-to-one binding. Turning to GMLIYSMWGK, the Kd with HLA-A*03:01 (setting [1]) was found to be 8.57 nM; in the assay with HLA-A*11:01 (setting [1]), 17.5 nM; with HLA-A*31:01 (setting [1]), 271 nM; in the assay with HLA-A*33:01 (setting [1]) it was 9910 nM; with HLA-A*68:01 (setting [1]), 54.6 nM.
Regarding SSYSLFDMSK, the Kd with HLA-A*03:01 (setting [2]) is 18 nM; with HLA-A*11:01 (setting [2]), 3.25 nM; with HLA-A*31:01 (setting [2]), 253 nM; in the assay with HLA-A*33:01 (setting [2]) it was 10100 nM; in the assay with HLA-A*68:01 (setting [2]) it was 42.2 nM.
For NLEMIDERKY, the equilibrium dissociation constant (Kd) is no less than 70100 nM with HLA-A*03:01 (setting [1]); no less than 69800 nM with HLA-A*11:01 (setting [1]); no less than 24200 nM in the assay with HLA-A*31:01 (setting [1]); no less than 70000 nM in the assay with HLA-A*33:01 (setting [1]); no less than 21400 nM in the assay with HLA-A*68:01 (setting [1]).
Regarding DVHPGEPVVK, the equilibrium dissociation constant (Kd) was 15400 nM with HLA-A*03:01 (setting [1]); no less than 23700 nM in the assay with HLA-A*11:01 (setting [1]); no less than 32000 nM with HLA-A*31:01 (setting [1]); no less than 70000 nM with HLA-A*33:01 (setting [1]); 57 nM in the assay with HLA-A*68:01 (setting [1]).
Turning to ENAVWDQFK, the equilibrium dissociation constant (Kd) with HLA-A*03:01 (setting [3]) was no less than 31500 nM; in the assay with HLA-A*11:01 (setting [3]), 15100 nM; in the assay with HLA-A*31:01 (setting [3]) it was no less than 77900 nM; in the assay with HLA-A*33:01 (setting [3]), 1020 nM; with HLA-A*68:01 (setting [3]), 250 nM.
Consider RTFNEDLFR, for which the Kd with HLA-A*03:01 (setting [1]) was determined as 73.5 nM; with HLA-A*11:01 (setting [1]), 15.1 nM; with HLA-A*31:01 (setting [1]), 17.6 nM; in the assay with HLA-A*33:01 (setting [1]), 1570 nM; with HLA-A*68:01 (setting [1]), 22.3 nM.
On to NVAYNVVNK, for which the Kd with HLA-A*03:01 (setting [2]) came out at 469 nM; in the assay with HLA-A*11:01 (setting [2]), 121 nM; with HLA-A*31:01 (setting [2]) it was 7170 nM; with HLA-A*33:01 (setting [2]), 19300 nM; with HLA-A*68:01 (setting [2]) it was 30.8 nM.
For the sequence DAEACYIYK, the Kd with HLA-A*03:01 (setting [1]) turned out to be 1350 nM; with HLA-A*11:01 (setting [1]), 57.5 nM; with HLA-A*31:01 (setting [1]), 208 nM; in the assay with HLA-A*33:01 (setting [1]), 234 nM; with HLA-A*68:01 (setting [1]) it was 49.2 nM.
In the case of AANTVIWDY, the Kd with HLA-A*03:01 (setting [2]) is no less than 78000 nM; in the assay with HLA-A*11:01 (setting [2]), 107 nM; with HLA-A*31:01 (setting [2]), no less than 38100 nM; with HLA-A*33:01 (setting [2]) it was no less than 77700 nM; in the assay with HLA-A*68:01 (setting [2]) it was 14200 nM.
Consider YTCEDNTGIK, for which the equilibrium dissociation constant (Kd) with HLA-A*03:01 (setting [1]) was no less than 29700 nM; with HLA-A*11:01 (setting [1]) it was 1060 nM; in the assay with HLA-A*31:01 (setting [1]), no less than 70000 nM; with HLA-A*33:01 (setting [1]), no less than 70000 nM; in the assay with HLA-A*68:01 (setting [1]), 256 nM.
With TLILSNKLLY, the dissociation constant (Kd) worked out at 1290 nM in the assay with HLA-A*03:01 (setting [1]); 1010 nM in the assay with HLA-A*11:01 (setting [1]); 18000 nM with HLA-A*31:01 (setting [1]); 18700 nM with HLA-A*33:01 (setting [1]); 4330 nM with HLA-A*68:01 (setting [1]).
The matching figures for GSIKIKQDVR: 8060 nM, 611 nM, 281 nM, 2480 nM and 253 nM.
SILARRPTPK: the Kd in the assay with HLA-A*03:01 (setting [1]) amounted to 1.08 nM; in the assay with HLA-A*11:01 (setting [1]), 1.44 nM; with HLA-A*31:01 (setting [1]), 372 nM; in the assay with HLA-A*33:01 (setting [1]), 12300 nM; with HLA-A*68:01 (setting [1]), 147 nM.
As for EILRNYLRLY, the dissociation constant Kd was determined as 489 nM in the assay with HLA-A*03:01 (setting [1]); 2110 nM with HLA-A*11:01 (setting [1]); 3460 nM with HLA-A*31:01 (setting [1]); 123 nM with HLA-A*33:01 (setting [1]); 512 nM with HLA-A*68:01 (setting [1]).
Regarding LTDTEYRAR, the equilibrium dissociation constant (Kd) with HLA-A*03:01 (setting [1]) is no less than 78000 nM; with HLA-A*11:01 (setting [1]), no less than 53900 nM; with HLA-A*31:01 (setting [1]), no less than 77900 nM; with HLA-A*33:01 (setting [1]) it was no less than 77700 nM; with HLA-A*68:01 (setting [1]), no less than 42600 nM.
For the sequence QSVLCVKKFY, the Kd was 1370 nM in the assay with HLA-A*03:01 (setting [1]); 13200 nM with HLA-A*11:01 (setting [1]); 15600 nM in the assay with HLA-A*31:01 (setting [1]); no less than 24500 nM with HLA-A*33:01 (setting [1]); 5670 nM with HLA-A*68:01 (setting [1]).
As to PFTQHLLNIR, the Kd with HLA-A*03:01 (setting [1]) is no less than 22300 nM; with HLA-A*11:01 (setting [1]), 2890 nM; in the assay with HLA-A*31:01 (setting [1]), 167 nM; in the assay with HLA-A*33:01 (setting [1]), 6510 nM; with HLA-A*68:01 (setting [1]), 224 nM.
In the case of FASADNHPK, the Kd is 7960 nM with HLA-A*03:01 (setting [1]); 174 nM in the assay with HLA-A*11:01 (setting [1]); 12400 nM with HLA-A*31:01 (setting [1]); 1240 nM with HLA-A*33:01 (setting [1]); 55.7 nM with HLA-A*68:01 (setting [1]).
In the case of SLIKFISDNK, the equilibrium dissociation constant (Kd) in the assay with HLA-A*03:01 (setting [1]) was 14.9 nM; with HLA-A*11:01 (setting [1]), 23.7 nM; with HLA-A*31:01 (setting [1]), 2650 nM; with HLA-A*33:01 (setting [1]) it was no less than 70000 nM; in the assay with HLA-A*68:01 (setting [1]) it was 69.1 nM.
The matching figures for ELGIAIFNNR: 961 nM, 1470 nM, 59.9 nM, 160 nM and 40.6 nM.
With EIKAEMQLK, the dissociation constant Kd is 1020 nM with HLA-A*03:01 (setting [1]); 1670 nM with HLA-A*11:01 (setting [1]); no less than 43900 nM in the assay with HLA-A*31:01 (setting [1]); 1520 nM in the assay with HLA-A*33:01 (setting [1]); 15.7 nM in the assay with HLA-A*68:01 (setting [1]).
As for DFIRRKYLIY, the Kd was 8650 nM with HLA-A*03:01 (setting [1]); no less than 20200 nM with HLA-A*11:01 (setting [1]); no less than 70000 nM with HLA-A*31:01 (setting [1]); 10400 nM in the assay with HLA-A*33:01 (setting [1]); 1100 nM with HLA-A*68:01 (setting [1]).
Consider NLTETFRDY, for which the equilibrium dissociation constant (Kd) in the assay with HLA-A*03:01 (setting [1]) was no less than 78000 nM; with HLA-A*11:01 (setting [1]) it was no less than 77900 nM; in the assay with HLA-A*31:01 (setting [1]) it was no less than 77900 nM; in the assay with HLA-A*33:01 (setting [1]), no less than 77700 nM; in the assay with HLA-A*68:01 (setting [1]), no less than 37400 nM.
